Test results: patent US20030224390A1, “Method of identifying conformation-sensitive binding peptides and uses thereof” (Karo Bio AB, priority 2000, published 2003)

T1: estrogen receptor (ER) α as a carboxy-terminal fusion to the Gal4 activation domain (yeast, UniProt P03372 1-595, limits assumed)
T1 sequence (looked up): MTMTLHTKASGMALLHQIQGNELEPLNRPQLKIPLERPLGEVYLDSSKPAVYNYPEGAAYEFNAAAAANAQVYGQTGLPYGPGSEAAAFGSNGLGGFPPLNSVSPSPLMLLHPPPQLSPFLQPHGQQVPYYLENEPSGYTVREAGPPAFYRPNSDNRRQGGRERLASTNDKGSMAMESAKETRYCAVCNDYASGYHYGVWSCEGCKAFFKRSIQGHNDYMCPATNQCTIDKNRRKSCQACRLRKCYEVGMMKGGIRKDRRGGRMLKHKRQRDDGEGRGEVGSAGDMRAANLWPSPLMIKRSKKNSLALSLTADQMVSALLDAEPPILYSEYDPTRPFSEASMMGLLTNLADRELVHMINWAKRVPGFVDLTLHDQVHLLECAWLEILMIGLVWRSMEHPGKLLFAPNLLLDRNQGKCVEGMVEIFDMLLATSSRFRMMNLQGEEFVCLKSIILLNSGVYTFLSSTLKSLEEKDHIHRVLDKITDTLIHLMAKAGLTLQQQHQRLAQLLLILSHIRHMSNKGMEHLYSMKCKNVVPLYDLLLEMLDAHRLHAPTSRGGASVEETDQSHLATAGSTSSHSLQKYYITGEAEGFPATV


Target: T1, estrogen receptor (ER) α as a …
Assay: cell-based or functional assay

Binder | fold induction of β-galactosidase by estradiol, yeast two-hybrid
B5H10 (peptide) MKLLSSIEQACDICRLKKLKCSKEKPKCAKCLKNNWECRYSPKTKRSPLTRAHLTEVESRLERLEQLFLLIFPREDLDMILKMDSLQDIKALLTGLFVQDNVNKDAVTDRLASVETDMPLTLRQHRISATSSSEESSNKGQRQLTVSEFSPPSSLLALLLGGKSLEPLPIRYKNVKRQFTSNSRGSVDLQPS | 4.5 fold
B3E2 (peptide) MKLLSSIEQACDICRLKKLKCSKEKPKCAKCLKNNWECRYSPKTKRSPLTRAHLTEVESRLERLEQLFLLIFPREDLDMILKMDSLQDIKALLTGLFVQDNVNKDAVTDRLASVETDMPLTLRQHRISATSSSEESSNKGQRQLTVSEFGGSVLLRELLCCYDALEPTTTR | 3 fold
B1A1 (peptide) MKLLSSIEQACDICRLKKLKCSKEKPKCAKCLKNNWECRYSPKTKRSPLTRAHLTEVESRLERLEQLFLLIFPREDLDMILKMDSLQDIKALLTGLFVQDNVNKDAVTDRLASVETDMPLTLRQHRISATSSSEESSNKGQRQLTVSEFCPVGLLVHLLMQ | 11 fold
B6F3 (peptide) MKLLSSIEQACDICRLKKLKCSKEKPKCAKCLKNNWECRYSPKTKRSPLTRAHLTEVESRLERLEQLFLLIFPREDLDMILKMDSLQDIKALLTGLFVQDNVNKDAVTDRLASVETDMPLTLRQHRISATSSSEESSNKGQRQLTVSEFFRATHLLRLLRTDSALDLQPS | 3 fold

The remaining lines, values ahead:

fold induction of β-galactosidase by estradiol, yeast two-hybrid | Binder
6 fold | B1G8 (peptide) MKLLSSIEQACDICRLKKLKCSKEKPKCAKCLKNNWECRYSPKTKRSPLTRAHLTEVESRLERLEQLFLLIFPREDLDMILKMDSLQDIKALLTGLFVQDNVNKDAVTDRLASVETDMPLTLRQHRISATSSSEESSNKGQRQLTVSEFTSVSRLVTLLLQ
≥ 2 fold | B6C4 (peptide) MKLLSSIEQACDICRLKKLKCSKEKPKCAKCLKNNWECRYSPKTKRSPLTRAHLTEVESRLERLEQLFLLIFPREDLDMILKMDSLQDIKALLTGLFVQDNVNKDAVTDRLASVETDMPLTLRQHRISATSSSEESSNKGQRQLTVSEFDRSSILVSLLSMVETLDLQPS
5 fold | B4F6 (peptide) MKLLSSIEQACDICRLKKLKCSKEKPKCAKCLKNNWECRYSPKTKRSPLTRAHLTEVESRLERLEQLFLLIFPREDLDMILKMDSLQDIKALLTGLFVQDNVNKDAVTDRLASVETDMPLTLRQHRISATSSSEESSNKGQRQLTVSEFSGVPILHMLLMLPSSLDLQPS
2.5 fold | B5A2 (peptide) MKLLSSIEQACDICRLKKLKCSKEKPKCAKCLKNNWECRYSPKTKRSPLTRAHLTEVESRLERLEQLFLLIFPREDLDMILKMDSLQDIKALLTGLFVQDNVNKDAVTDRLASVETDMPLTLRQHRISATSSSEESSNKGQRQLTVSEFGCSAILRYLLRSPRDLDLQPS
12 fold | B2G1 (peptide) MKLLSSIEQACDICRLKKLKCSKEKPKCAKCLKNNWECRYSPKTKRSPLTRAHLTEVESRLERLEQLFLLIFPREDLDMILKMDSLQDIKALLTGLFVQDNVNKDAVTDRLASVETDMPLTLRQHRISATSSSEESSNKGQRQLTVSEFFRLRRLDRLLQDSFLLDLQPS
